Source: the nanobody polyreactivity screen of Harvey et al. (2022)

Test: yeast display, Sf9 membrane polyspecificity reagent, FACS + sequencing; frameworks hold sequencing errors
Method in brief: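 Galactose-induced (36–48 hours) yeast carrying a synthetic nanobody display library were exposed to 10% biotinylated, detergent-solubilized Sf9 membrane reagent at 4 °C for 1 hour. FACS followed streptavidin microbead enrichment, using low and high (top ~1%) gates for expression (anti-HA) and reagent binding (streptavidin). Colony PCR, MiSeq 2 × 250 sequencing and CDR-length filtering followed. Labels for polyreactivity reflect the gate of origin.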

Row | Sequence | polyreactivity (PSR sort gate)
1 | QVQLVESAAGLVQAVGSHRLSCAASRLTFGFYAMGSDRQARGKESELVAAIDFSDGSTYYADSVKGRFTISRDNAKKTVYLQMNSLKPEDTAVYYCAADDPGLGYWSLTWYDYWGQGTQVTVSS | high polyreactivity
2 | QVQLVESGAGLVQAGGSLRLSCAASGSIFEYYAMGWYRQAPGKERELVAAISSGGPTYYADSVKGRFTISRDNAKNTVYLQMNSLKPEDTAVYYCNAALRYPDYDYWGQGTQVTVSS | low polyreactivity
3 | QGHLVESWGGLVQAGGSLRLSCAASGSIFKDNAMGWYRQAPGKERELVAAITWSGGSTYYADSVKGRFTSSRDNANNTVYLQMNSLKAEDTAVDRYKYDYWGQGTQVTVSS | low polyreactivity
4 | QVQLVEAGGGLVHAGGSLRLSCAASGRIFLAYAMGCYRQAPGKEMELVATIRSGGSTTYADSVKGRFTISRDNAKNSVYLQMNSLKTEDTAVYYCARRYQRKKPVFPHSQGAYDYWGQGTQVTVSS | low polyreactivity
5 | QVQLVESGGGLVQAGGSLRLSCAASGSTFAANTMGWYRQAPGKEWELVAAITVRGGSTYYADSVKGRFTISRDNAKTTVYLQMNSLKPEDTAVYYCAAERPPYGYLVVGYVSTQYYYWGQGTQVTVSS | low polyreactivity
6 | QVQLVESGGGLVQAGGSLRLSCAASGSIFRAYAMGWYRQAPGKERELVAGITKSGGSTYYADSVKGRFTISRDHAKNTVYLQMNSLKPEDTAVYYCAAYRSRTYGYWGQGTQVTVSS | high polyreactivity
7 | QVQLVESGGGLVQAGGSLRLSCAASGSIFGGYTKGWYRQAPWKERELVAAISRRGGNTYYADSVKGRFTISRDNAQITVYLQMNSLKPEDTAVYYCAVLWPSARIPVKLDYWGQGTQVTVSS | high polyreactivity
8 | QVQLVESGGGLVQAGGSLRLSCAPSGSTFGYNDMGWYRQAPGKERELVAAIDTGVSTNYADSVKGRFTISRDNAMNTVYLQMNSLKPVDTAVYYLAKSGSAYWHSGWSVGFDYWGQGTQVTVSS | low polyreactivity
9 | QVQLVESGGGLVQAGGSLRLSCAASGRIFNWYGMGWYRQAPGKERELVATISSSGDSTYYADSVKGRFTISRDNAKNTVYLQMNSLKPEDTAVYYCAKRARYKFGYWGQGTQVTVSS | high polyreactivity
10 | QVQLVESGGGLVQAGGSLRLSCAASGFIFGFNAMGWYRQAPGKERELVAVISARGGRTYYADSVKGRFTISRDNAKNTVYLQMNSLKPEDTAVYYCAADDFFRYFFTHWVGDDYWGQGTQVTVSS | low polyreactivity
11 | QVQLVESGGGLVQAGGSLRLSCAASGFILGGYAMGWYRQAPGKERELVAAISWSSGSTYYADSVKGRFTISRDNAKTTVYLQLNSLKPEDTAVYYCAAVGAYDYWGQGTQVTVSS | low polyreactivity
12 | QVQLVESGGGLVQAGGSLRLSSAASRITFDQNAMGWYRQAPGKERELVAAITRGSSTNYADSVKGRFTISRDNAKNTVYLQMNSLKPEDTAVYYCNADGYARFRTYYSRDTREYDYWGQGTQVTVSS | low polyreactivity
13 | QVQLVESGGGLVQAGGSLRLSCAASGSIFVWYDMGWYRQAPGKERELVATISLSGVSTYYADSVKGRFTISRDNAKNPVYLQLNSLKPEDTAVYYCAADFVEQGEDDYWGQGTQVTVSS | low polyreactivity
14 | QVQLVESGGCLVQAGGSLRLSCAASGSILATNVMGWYRQSPGKESQFVAAISSGGSTNYADSVKGRFTISRDNAKYTVYLQMNSLKPEDTAVYYCATSSIWGSGRVRWVSYYYWGQGSQVTVSS | low polyreactivity
15 | QVQLVESGGGLVQAGGSLRLSCAASGRTFPYYAMGWSRQAPGKERELVAGITSNAGSTYYADSVKGRFTISRDNAKNTVYLQMNSLKPEDTAVYYCAKTKAGRWTTFKFGYWGQGTQVTVSS | high polyreactivity
16 | QVQLVESGGGLVQAGGSLRLSCAASGRTFRYYTMGWYRQAPGKERELVAAISRGGRTYYADSVKGRFTISRDNAKNTVYLQMNSLKPEDTAVYYCAAQLFREYYYWGQGTQVTVSS | high polyreactivity
17 | QLQLVESGGGLVQAGGSLRLSCAASGLTFYWYAMGWYRQAPGKERELVAAITSTGSTYYADSVKGRFTISRDNAKNTVYLQMNILKPEDTAVYYCNADFPANWGWDYDYWGQGTQVTVSS | low polyreactivity
18 | QVQLEDSGGGLVQAGARLRLSCAASGSTFAQNAMGRYRQAPGKERELVAAITYSGGSTYYADSVKGRFSISRDNAKNTVYLQMNSLKPEDTAVYYCAADVWWSYYRYDYWGQATQVTVSS | low polyreactivity
19 | QVQLVESGGGLVQAGGSLRLSCSASGFTFRSYAMGWYRQAPGEEREFVAAISRRGDSTYYADSVKGRFTISRDNAKNTVYLQMNSLKPEDTAVYYCAKYGIASRYSRFDSWGQGTQVTVSS | high polyreactivity
20 | QVQLVDSGGGLVQAGGSLRLTFAASGRTFRWNVMGWYRQAPGKERELVATISRRSGSTNYADSVKGRFTISRDNAKITVYLQMNSLKPEDTAVYYCAVVIVRALVYAGDYWGQGTQVTVSS | low polyreactivity
21 | QVQLVESGGGLVQAGGSLRLSCAASGRTFSKYAMGWYRQAPGKERELVASITRSGGSTNYADSVKGRFTISRDNAKNTVYLQINSLKPEDTAVYYCRRKLGRTHASGFDYWGQGTQVTVSS | low polyreactivity
22 | QVQLVESGGCLVQAGGSLRLSCAASGFIFWDYAMGWYRQAPGKERELVAAISDSGGDKYYADSVKGRFTISRDNAKNTVYLQMNSLKPEDTAVYYCAADVELWVFRGQQYDYWGQGTQVTVSS | low polyreactivity

Row | Sequence | polyreactivity (PSR sort gate)
23 | QVQLVESGGGLVQAGGSLRLSCAASGSTFSTNAMGWYRQAPGKERELVAAIRWRGGRTYYADSVKGRFTISRDNAKNTVYLQMNSLKPEDTAVYYCAADYSFTGHRYTYGYWGQGTQVTVSS | high polyreactivity
24 | QVQLVESGGGLVQAGGSLRLSCAASVYTFYKYAMGWYRQAPGKERELVAAISSSGGSTYYADSVKGRFTISRDNAKNTVYLQMNSLKPEDTAVYYCAAYVYSNDYDYWGQGTQVTVSS | high polyreactivity
25 | QVQLVESCGGLVQAGGSLRLSCDASGITFNYNAMGWYRQAPGKERELVARITWSGTRTYYADSVKGRFTISRDNAKNTVYLQMNSLKPEDTAVYYCNAGPYARYYWGQGTQVTVSS | high polyreactivity
26 | QVQLVESGGGLFQAGGSLRLSCAASGIIFYVNAMAWSRQAPGKERERVAVISRRGGSTNDADSVKGRFTISRDNAKNTVYLQMKSLKPEDTAVYYCDAGYRTAYRGSSYYYWGKGTQVTVSS | high polyreactivity
27 | QVQLVESGGGLVQAGGSLRLSCAASGSTFVRYAKGWYRQAPGKETELVAAISYRGGSTYYADSVKGRFTISRDNAKNTVYLQMNSLKPEDTAVYYCAAESRHVEGEYWGQGTQVTVSS | high polyreactivity
28 | QVPLVESGGGLVQAGGSLRLSCAASGSTFYTYAMGWYRQAPGKERELVATISRGGGRTYYADSVKGRFTISRDNAKYTVYLQMISLKPEDTAVYYCAARLYSSSYNSEQYYYWGQGTQVTVSS | high polyreactivity
29 | QVQLVESGGGLVQAGGSLRLSCAASGGTVKYYAMGWSRQSPGKERELVAAITWSGGSTYYADSVKGRFTISRDNAKNTVYLQMNSLKPEDTAVYYCNAAYSQISFNYWGQGTQVTVSS | high polyreactivity
30 | QLQLVESGGGLVQAGGSLRLSCAPSGSTFESYAMGWYRQSPGKERELVAAISSSGGSTYYADSVKGRFTISRENAMNTVYLEMYRLIPEDTAVYYCAAPTFSRYYYWGQGTQVTVSS | high polyreactivity
31 | QVQLVESGGGLVQAGGSLRLSCDASGLTFHRYAMGWYRQAPGKERELVAAINYSGGRTYYADSVKGRFTISRDNAKNTFYLQMNSLKPEDTAVYYCAAPRASGYFWGQGTQLTVSS | high polyreactivity
32 | QVQLVESGGGLVQAGGSLRLSCAASGRILVVNAMGWYRQAPGKERELVASISQSGGITYADSVKGRFTISRDNAKNTVYLQMNSLKTEDTAVYYCAAKSTWEYDYWGQGTQVTVSS | low polyreactivity
33 | QVQLVESGGGLVQAGGSLRLSCAASGRTFWYNAMGWYRQAPGKERELVAAISSTGGRTYYADSVKGRFTISRDNAKNTVYLQMNSLKPEDTAVYYCAARQLSSHYDYWGQGTQVTVSS | low polyreactivity
34 | QVQLVESGGGLVQAGGSLRLSCAASGFIFGYYAMGWYRQAPGKERELVAAISKIGDSTYYADSVKGRFTISRDNAKNTVYLQMNSLKPEDTAVYYCNKVVRNYPRLYGHWGQGTQVTVSS | high polyreactivity
35 | QVQLVESGGGLVQAGGSLRLSCSASGFIFWYYAMGWYRQAPGKERELVAAISSGGSTNYADSVKGRFAISRDNAKNTVYLQLNSLIPVDTAVYYCATSSIWGSARVRWVTYYYWGQGTQVTVSS | low polyreactivity
36 | QVQLVESGGGLVQAGGSLRLSCAASGRILLYNAMGWYRQAPGKERELVAAISRSGGSTYYADSVKGRFTISRDNAKNTVYLQMNSLKPEDTAVDYCAAQHGYTRYYYWGQGTQVTVSS | high polyreactivity
37 | QGQLVESGGGLVQAGGSLRLSCAASGSTFDYYVMGWYRQAPRKERELVAAISSGDSTNYADSVKGRFTISRDNAKNTVYLQMNSLKPEDTAVSYCAAEYTVHYDYWGQGTQVTVSS | low polyreactivity
38 | QVQLVESGGGLVQAGGSIRLSCAASGSIFRIYVMGWYRQAPGQERELVAAINSGGRTKYADSVKARFTISRDNAKNTVYLQMNSLKPEDTAVYYCAAAFQYRKGVSSLYASWGQGTQVTLSS | high polyreactivity
39 | QVQLVESGGGLVHAGGSLRLSCAASGRIFGTNAMGWYIQAPGKERELVATITRGGGNTYYADSVKVRFTISRDHAMNTVDLQMNSLKPEDTAVYYCNVDYGVHVPPRDYWGQGTQVTVSS | low polyreactivity
40 | QVQLVESGGGLVQAGGSLRLSCAASGSTIPRNAMGWYRPAPGKERELVAAITSGGSTNYADSVKGRFTLSRDNAKNTVYLQINSLKPEDTAVYYCAADEQVNTQYVVWGDYWGQGTQVTVSS | low polyreactivity
41 | QVQLVESGGGLVQPGGRLRISCAASGRIFGRYAMGWYRLEPGKERELVAAITSSGGNTYYADSVKGRFTISRDNAKNTVYLQMNSMKPEDTAVYYCIARSARSRRQSDYWGQGTHVTVSS | high polyreactivity
42 | QVQLVESGGCLVQAGGSLRLSCAASGYTFYVYAMGWYRQAAGKVRELVSAISGGSNTYYADSVKGRFTISRDNAKNTVYLQMNSLKPEDTALYYCAKSSTTYRQRARYDYWGHGTQVTVSS | high polyreactivity
43 | QVQLVESGGGLVQAGGSLRISCAASGSTFYKYDMGWYRQAPGKEREFVAVISRSGGNTYYADSVKGRFTISRDNAKNTVYLQMNSLKPEDTAVSYCAADNYPDEYDYWGQGTQVTVSS | low polyreactivity
